For three substances, duty ratio KABD = kon/(kon + koff) and Kd results are on record in article doi:10.1101/2025.08.29.673170.

The assay deals with F-actin (pre-polymerized actin filaments) (UniProt P68135). Kind of assay: co-sedimentation.

pKd: −log10 of the molar value.

In the case of 10xHis-SNAP-EzrABD (domain or fragment), the duty ratio KABD = kon/(kon + koff) is 0.14.

Regarding “10xHis-SNAP-EzrABD K577A (domain or fragment)”, the pKd was 5.00 and the duty ratio KABD = kon/(kon + koff) was 0.1.

Regarding “10xHis-SNAP-UtrABD (from UniProt P46939 1-261) (domain or fragment)”, the negative-log Kd (pKd) is 6.40 and the duty ratio KABD = kon/(kon + koff) came to 0.71.

Broadly, the pKd is the Kd on a negative log10 scale, so that one unit is a factor of ten. The low end stands for a large Kd, the high end for a small Kd.
